Test results: the supplement of paper PMC9170038

system: K4 kissing-loop RNA reporter; assay: apparent KD of K4 kissing-loop reporter; higher = weaker reporter binding; details: Eterna round: R107; input ligand: FMN 200 uM;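 also: bound reporter read as fluorescence of individual clusters on recovered sequencing chips by microscopy, with normalized cluster intensities fitted with a binding model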
Procedure: (§1)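 RNA-MaP round R107: designed RNA switches with theophylline, tryptophan, arginine or FMN aptamers are transcribed on-chip within common flanks. They are titrated with a labelled K4 kissing-loop RNA reporter in RNA-MaP buffer (100 mM Tris pH 7.5, 80 mM KCl, 4 mM MgCl2), without ligand or with the indicated ligand. Median apparent KD per design.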

Going from “CUUGGAAGGACGGCCGCCACUGGGCAGUGAUGUUGCCCGACCAGGUAACGCAGUGAUGUUGCGACCAGGACCGGGUCCUAGGAAU [Exclusion Tryptophan B GF 24]” to “CGCAGGAUGGAAGGAUAUGGGAGUUGACGUCGCCGAGCUAACCUUCUGCACGGAGUGAUGUUUAGACCAGAAGGUCCUCGGAGCA [theeternabot_exclusion_KL_FMN_B_17]”, the “apparent KD of K4 kissing-loop reporter” value rises from 161 nM to 1210 nM (7.5-fold).

In the case of “UUUUUUUACUGAAGGAGCGGCAAUUGAUACGUAGAUAUAGUGAUGUUAUAUAAGAUAGAGAGCCAGGUAGGUCGCAGAUUUUUUC [ExArgB.X]”, the “apparent KD of K4 kissing-loop reporter” value is reported as 194 nM.

same assay, conditions: Eterna round: R107; input ligand: arginine 13.2 mM

Going from “CUUGGAAGGACGGCCGCCACUGGGCAGUGAUGUUGCCCGACCAGGUAACGCAGUGAUGUUGCGACCAGGACCGGGUCCUAGGAAU [Exclusion Tryptophan B GF 24]” to “CGCAGGAUGGAAGGAUAUGGGAGUUGACGUCGCCGAGCUAACCUUCUGCACGGAGUGAUGUUUAGACCAGAAGGUCCUCGGAGCA [theeternabot_exclusion_KL_FMN_B_17]”, the “apparent KD of K4 kissing-loop reporter” value rises from 140 nM to 997 nM (7.1-fold).

For “UUUUUUUACUGAAGGAGCGGCAAUUGAUACGUAGAUAUAGUGAUGUUAUAUAAGAUAGAGAGCCAGGUAGGUCGCAGAUUUUUUC [ExArgB.X]”, the “apparent KD of K4 kissing-loop reporter” value was 160 nM.

same assay, conditions: Eterna round: R107; input ligand: none

First: CUUGGAAGGACGGCCGCCACUGGGCAGUGAUGUUGCCCGACCAGGUAACGCAGUGAUGUUGCGACCAGGACCGGGUCCUAGGAAU [Exclusion Tryptophan B GF 24]
Second: CGCAGGAUGGAAGGAUAUGGGAGUUGACGUCGCCGAGCUAACCUUCUGCACGGAGUGAUGUUUAGACCAGAAGGUCCUCGGAGCA [theeternabot_exclusion_KL_FMN_B_17]
The “apparent KD of K4 kissing-loop reporter” value of the first is 10-fold lower: 155 nM for the first, 1610 nM for the second.

In the case of “UUUUUUUACUGAAGGAGCGGCAAUUGAUACGUAGAUAUAGUGAUGUUAUAUAAGAUAGAGAGCCAGGUAGGUCGCAGAUUUUUUC [ExArgB.X]”, the “apparent KD of K4 kissing-loop reporter” value is reported as 172 nM.

same assay, conditions: Eterna round: R107; input ligand: theophylline 20 uM

Compared with “CUUGGAAGGACGGCCGCCACUGGGCAGUGAUGUUGCCCGACCAGGUAACGCAGUGAUGUUGCGACCAGGACCGGGUCCUAGGAAU [Exclusion Tryptophan B GF 24]”, “CGCAGGAUGGAAGGAUAUGGGAGUUGACGUCGCCGAGCUAACCUUCUGCACGGAGUGAUGUUUAGACCAGAAGGUCCUCGGAGCA [theeternabot_exclusion_KL_FMN_B_17]” is 8.5-fold higher in “apparent KD of K4 kissing-loop reporter” value: 136 nM for the first, 1150 nM for the second.

“UUUUUUUACUGAAGGAGCGGCAAUUGAUACGUAGAUAUAGUGAUGUUAUAUAAGAUAGAGAGCCAGGUAGGUCGCAGAUUUUUUC [ExArgB.X]” was tested, and the “apparent KD of K4 kissing-loop reporter” value was 143 nM.

same assay, conditions: Eterna round: R107; input ligand: tryptophan 2.4 mM

Compared with “CUUGGAAGGACGGCCGCCACUGGGCAGUGAUGUUGCCCGACCAGGUAACGCAGUGAUGUUGCGACCAGGACCGGGUCCUAGGAAU [Exclusion Tryptophan B GF 24]”, “CGCAGGAUGGAAGGAUAUGGGAGUUGACGUCGCCGAGCUAACCUUCUGCACGGAGUGAUGUUUAGACCAGAAGGUCCUCGGAGCA [theeternabot_exclusion_KL_FMN_B_17]” is 11-fold higher in “apparent KD of K4 kissing-loop reporter” value: 105 nM for the first, 1180 nM for the second.

“UUUUUUUACUGAAGGAGCGGCAAUUGAUACGUAGAUAUAGUGAUGUUAUAUAAGAUAGAGAGCCAGGUAGGUCGCAGAUUUUUUC [ExArgB.X]” was tested, and the “apparent KD of K4 kissing-loop reporter” value was 129 nM.

system: MS2 coat protein; assay: apparent KD of MS2 coat protein; higher = weaker reporter binding; details: Eterna round: R107; input ligand: arginine 13.2 mM
Procedure: as §1, with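 “SNAP-549-labelled MS2 coat protein” for “a labelled K4 kissing-loop RNA reporter”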

Going from “ACAAGUCCUCAUGAUACCAGCGAUGAGACAAAGUCUCAACAUGAGGAUCACCCAUGUACUCGCCCUUGGCAGCAUACGGUUUUUG [Onedxequla]” to “AGAGUCUAGUCGGCCGCCACUCAUGUCCGAAGGACAUGAGGAUCACCCAUGUACCAAUGGUACAUGAGGACCGGGACUGGACUCA [Omei Tryp B SS C v3]”, the “apparent KD of MS2 coat protein” value falls from 139 nM to 34.5 nM (4-fold).

“AGAAAGAAACAAAACUCAAGGAGAACCGAAGGAGCGGCGAAAGAGCCAGGUAGGUCGCGGUCCUCAACAUGAGGAUCACCCAUGU” and “UGUACCUAGUCGGCCGCCACUCAAUAAUGAGAGGAUCACCCUCAUAAACGAGUCAAAGACUCGAUGAGGACCGGGACUAGGUACU [Palindromic MS2 2 #AlternativeMS2 #Palindrome #StaticStem]” are within 1.5-fold of each other in “apparent KD of MS2 coat protein” value: 61.6 nM for the first, 59.4 nM for the second.

First: GGCGCUGCGUCGGCCGCCACUAGUGGGUAAUGGGUGUACAUGAGGAUCACCCAUGUAUUUUGGCCUAGGACCGGGACGUGGCGCC [Oxen]
Second: CGGCCCUCACUUGAGGAACACCCAAGUGAUACCAGCCUGGAAACAGGCCCUUGGCAGCACUAGGUCAUCAAAGAUGACCAAGCCG [TheoAX 29 #OpenEnded #AlternativeMS2]
The “apparent KD of MS2 coat protein” value of the first is 4.6-fold higher: 81.9 nM for the first, 17.7 nM for the second.

“AAAUGUGUAAAAGCUUUAACACCCUGAGAAGGAGCGCAAUAAAUUGCAGGUAGGUCGCUCAGACAUGAGGAUCACCCAUGUAACC [Atrabeor]” and “GAUGAACUAUAUGAUACCAGACAACAUGAGGAUCACCCAUGUGAUUGUCGUCCUCUGCCUGUCCCUUGGCAGCGUAUAGUUUAUC [XTheo B #16]” are within 1.5-fold of each other in “apparent KD of MS2 coat protein” value: 45.7 nM for the first, 38.4 nM for the second.

Compared with “AGCCCGGGAGCGGCCGCCACUGGAGGCUGAGCGCGACAUGAGGAUCACCCAUGUGUGCCCGGCGUUAGGACCGGGCUCGCGUGGU [#1 Same State - Tryptophan B Attempt #23 (HarryS)]”, “ACAUGAGGAUCACCCAUGUGCCGUCUUGAUACCAGACCCGAAGUAGUCCCUUGGCAGCAACUACGUGACGGUCGCCCAUGUGUAG [rremullin]” is 2-fold lower in “apparent KD of MS2 coat protein” value: 28.4 nM for the first, 14 nM for the second.

“GUCCGACAUGAGGAUCACCCAUGUACUGAAGGAGCGGACAAAUGUCCAGGUAGGUCGCAGCUAUAUGGUGUGGACCGAUCCGGAC [Ustius]” and “GAUAUAUACUCGGCCGCCACUGAGAGAGUCAUGUAAACAUGAGGAUCACCCAUGUAAUAUAUAUACAGGACCGGGAGUAUAUUAA [4.C]” are within 1.5-fold of each other in “apparent KD of MS2 coat protein” value: 19 nM for the first, 16 nM for the second.

Compared with “CAAUAUAUAUGAAGGAGCGACAUGAGGAUCACCCAUGUCUACCACGUCGAAAGACGCUCAUGUCAGGUAGGUCGCAUAUAUAUUG [Astros-Eli-mod4]”, “UCGCCCAGAAAGGAUUGCUGGGAUAUGGAAGGAGCGCUGAUGCCAGCAGGUAGGUCGCCAACGGACAUGAGGAUCACCCAUGUAC [Same State - Arginine A (Freestyle 6)]” is 4.3-fold lower in “apparent KD of MS2 coat protein” value: 71.9 nM for the first, 16.7 nM for the second.

“GGUUACUCUACGGCCGCCACUGUAAAGUAAAGAUUACUGUACAUGACAUGAGGAUCACCCAUGUACAGGACCGGGUAGUGUAACC [Tryptophan B 15]” and “UAAUCAGUGCCGGUUCUCGGAUCCUCAUGUCGAGGACCGGUACGGCCGCCACUCGGAACAUGAGGAUCACCCAUGUAAUAAUAAU [#10 Exclusion Tryptophan A]” are within 1.5-fold of each other in “apparent KD of MS2 coat protein” value: 32.2 nM for the first, 40.7 nM for the second.

Compared with “GCACAAGAUGGAAGGAGCGCUGGAAAAGGUCACAUGAGGAUCACCCAUGUUCUCCGAACCGAGCAGGUAGGUCGCUAUCUUGUGC [#09 Same State - Arginine B]”, “UUCAGCUAGUCGGCCGCCACUACCUGAGGAUCACCCUGGUAGGUCCACACUGCUUCGGCAGUGAGUAGGACCGGGACUAGCUGAG” is 2-fold lower in “apparent KD of MS2 coat protein” value: 37.5 nM for the first, 18.3 nM for the second.

Compared with “UUUUUUAUCAUGGCGUAUCGGAAAACCGAUACCAGUACAGAAAUGUACCCUUGGCAGCGGCGUUUUACAUGAGGAUCACCCAUGU [Ex Theophylline A 4]”, “CAAUAUAUAACGGCCGCCACUUACUCAUGAGGUAACAACAUGAGGAUCACCCAUGUUUGAGGAUCAAGGACCGGGUUAUAUAUUG [AstrosSSTry#19]” is 1.9-fold higher in “apparent KD of MS2 coat protein” value: 15.1 nM for the first, 29.3 nM for the second.

First: GGGUACAUCGCGGCCGCCACUUAUGUAAAUACAUGAGGAUCACCCAUGUCGAUGGAGACAUCGGAAAGGACCGGGUGAUGUACCG
Second: UUCAUGAGGAUUGAUACCAGCCACCAACAUGAGGAACUUACAUGAGGAUCACCCAUGUGAGGCCCUUGGCAGCAAGCAUACAUGA [Exclusion Theophylline B 3]
The “apparent KD of MS2 coat protein” value of the first is 13-fold higher: 130 nM for the first, 10.1 nM for the second.

“AGCUCGCAUCCUCAAAGCGUCAAAGACGCACGAGGACCGGUACGGCCGCCACUCGACCUGAGGAUCACCCUGGUCUAAGCGAGCA [TrypAX 9 #SwitchBubble #AlternativeMS2 #MS2Late #CuTurnoff]” and “UUAACAUGAGGAUCACCCAUGUUUGAUGAAGGAGCGACCAGAGGGUCAGGUAGGUCGCAUCACAUGAGGAUCACCCAUGUCGCCC [DOUBLE!!! :-D #13]” are within 1.5-fold of each other in “apparent KD of MS2 coat protein” value: 29.7 nM for the first, 22.3 nM for the second.
